B1: TbCDA (Trypanosoma brucei brucei TREU927) (protein)
chain: MQCSSLKTGCLKLLSQLPEGLQQAGRTAVSAHQRSYCPYSNFAVGAALLHDDGKVTSGCNYETCVYKGTCAEACAIVKANMDGYRTAQAVAIYGRSVLPTAAAAAADATVPPCGFCRQLLAEVADLSGNMNDFLVVLVTFDQEHARLFRLSELLPQPFGPSSIGMDVAALATGEHSRCPGTF

Columns and labels:
[1] = target: Trypanosoma brucei cytidine deaminase (recombinant His tag fusion protein) (Trypanosoma brucei brucei (427 strain)); assay: SEC; gel filtration of purified recombinant TbCDA on Superdex 200, 50 mM phosphate buffer (pH 7.4) plus 150 mM NaCl, calibrated with molecular weight markers; 500 ul injected
purified protein [2] = substrate: Cc1cn([C@H]2C[C@H](O)[C@@H](CO)O2)c(=O)nc1N; assay: purified protein; assay type: biochemical, Trypanosoma brucei; conditions: 50 mM Tris-HCl pH 7.5, 1 mM DTT, 0.125 μM enzyme
purified protein [3] = substrate: Nc1ccn([C@H]2C[C@H](O)[C@@H](CO)O2)c(=O)n1; assay: purified protein; assay type: biochemical, Trypanosoma brucei; conditions: 50 mM Tris-HCl pH 7.5, 1 mM DTT, 0.125 μM enzyme
purified protein [4] = substrate: Nc1ccn([C@@H]2O[C@H](CO)[C@@H](O)[C@H]2O)c(=O)n1; assay: purified protein; assay type: biochemical, Trypanosoma brucei; conditions: 50 mM Tris-HCl pH 7.5, 1 mM DTT, 0.125 μM enzyme

Molecule	stoichiometry N [1]	Km (purified protein [2]) [µM]	Vmax (purified protein [2]) [µmol/min/mg]	kcat (purified protein [2]) [s⁻¹]	kcat/Km (purified protein [2]) [M⁻¹ s⁻¹]	Km (purified protein [3]) [µM]	Vmax (purified protein [3]) [µmol/min/mg]	kcat (purified protein [3]) [s⁻¹]	kcat/Km (purified protein [3]) [M⁻¹ s⁻¹]	Km (purified protein [4]) [µM]	Vmax (purified protein [4]) [µmol/min/mg]	kcat (purified protein [4]) [s⁻¹]	kcat/Km (purified protein [4]) [M⁻¹ s⁻¹]
Trypanosoma brucei cytidine deaminase (recombinant His tag fusion protein) (enzyme)	4												
B1		24.5 ± 3.3	5.9	2.09 ± 0.08	85000	52.3 ± 4.5	34.9	12.4 ± 0.293	238000	199.5 ± 9.0	126	44.8 ± 1.2	225000
